The source of these data is patent US20260125457A1 (Janssen / Centocor, published 2026).

The target of assay [1] is HIS-CALRdel52 (produced in E. coli). In words: QC monoclonal phage ELISA, helper phage control.
Assay [2] concerns the target T1, CD3 on primary human pan T cells (human, UniProt P07766 23-207).
T1 construct: whole, on cells; also called CD3e; CD3ε
In words: flow cytometry on pan CD3 T cells, 1 h at 37 C, AF647 secondary antibody, Geometric Mean. As to the method: FIG. 22 depicts binding of different CALRmutxCD3 bispecific antibodies to pan CD3 T cells. Flow cytometry was used to evaluate CALRmutxCD3 binding to pan CD3 T cells in vitro, by 1 hour 37° C. incubation, with subsequent incubation with secondary AF647-labeled antibody. Geometric mean fluorescence intensity of AF647 was measured to determine antibody binding.
Flow cytometry was used to evaluate the CD3 arm binding of CALRmutxCD3 antibodies listed in Table 21 to CD3+ pan T cells from healthy human donor. CALRmutxCD3 were tested after 1 hour 37° C. incubation with pan T cells.

Assay [3] addresses T2, CALRins5 (mutant calreticulin, 5 base pair insertion, Type 2) expressed with MPL on engineered cancer cells (UniProt P27797 18-417).
T2 construct: whole, on cells; On the cell surface in complex with MPL; also called OCI-M2 MPL CALRins5
T2 sequence (looked up): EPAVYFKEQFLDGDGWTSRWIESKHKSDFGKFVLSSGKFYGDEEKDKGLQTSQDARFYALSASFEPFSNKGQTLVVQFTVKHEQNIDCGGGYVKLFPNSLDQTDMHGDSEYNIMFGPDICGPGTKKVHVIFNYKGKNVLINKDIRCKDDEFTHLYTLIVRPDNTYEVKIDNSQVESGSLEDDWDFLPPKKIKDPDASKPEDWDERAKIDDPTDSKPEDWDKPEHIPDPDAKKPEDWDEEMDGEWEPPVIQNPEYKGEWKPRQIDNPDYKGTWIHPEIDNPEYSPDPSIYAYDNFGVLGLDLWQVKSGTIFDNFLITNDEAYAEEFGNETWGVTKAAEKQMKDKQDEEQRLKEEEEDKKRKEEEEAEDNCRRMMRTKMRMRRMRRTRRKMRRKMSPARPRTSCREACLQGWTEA
As to the kind of experiment: flow cytometry on ELF-153 MPL CALRins5 cells, 1 h at 37 C, AF647 secondary antibody, Geometric Mean. As to the method: (§1) FIGS. 21A-21F depict binding of different CALRmutxCD3 bispecific antibodies to CALRmut-negative or CALRmut-positive cells. Flow cytometry was used to evaluate CALRmutxCD3 binding to CALRmut-negative and CALRmut-positive cancer cells in vitro. CALRmutxCD3 antibodies were tested on a panel of cell lines, engineered to express MPL and CALRmut, after 1 hour 37° C. incubation, with subsequent incubation with secondary AF647-labeled antibody. Geometric mean fluorescence intensity of AF647 was measured to determine antibody binding.

For assay [4], the target named is T3, CALRdel52 (mutant calreticulin, 52 base pair deletion, Type 1) expressed with MPL on engineered cancer cells (UniProt P27797 18-417).
T3 construct: whole, on cells; On the cell surface in complex with MPL; also called OCI-M2 MPL CALRdel52
T3 sequence (looked up): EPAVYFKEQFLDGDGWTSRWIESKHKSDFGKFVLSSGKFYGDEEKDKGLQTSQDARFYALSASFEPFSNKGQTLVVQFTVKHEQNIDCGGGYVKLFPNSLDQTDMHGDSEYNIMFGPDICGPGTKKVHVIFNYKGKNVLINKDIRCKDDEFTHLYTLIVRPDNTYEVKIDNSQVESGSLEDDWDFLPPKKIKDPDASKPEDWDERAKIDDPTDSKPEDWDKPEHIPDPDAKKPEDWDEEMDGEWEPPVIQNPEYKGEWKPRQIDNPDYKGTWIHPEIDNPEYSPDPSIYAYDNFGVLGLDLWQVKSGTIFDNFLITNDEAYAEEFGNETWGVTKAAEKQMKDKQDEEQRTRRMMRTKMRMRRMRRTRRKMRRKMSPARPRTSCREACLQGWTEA
In words: flow cytometry on OCI-M2 MPL CALRdel52 cells, 1 h at 37 C, AF647 secondary antibody, Geometric Mean. As to the method:
as §1

Assay [5] concerns the target T4, wild-type calreticulin (CALRwt) expressed with MPL in engineered cancer cells (UniProt P27797 18-417, limits assumed).
T4 construct: whole, on cells; also called OCI-M2 MPL CALRwt
T4 sequence (looked up): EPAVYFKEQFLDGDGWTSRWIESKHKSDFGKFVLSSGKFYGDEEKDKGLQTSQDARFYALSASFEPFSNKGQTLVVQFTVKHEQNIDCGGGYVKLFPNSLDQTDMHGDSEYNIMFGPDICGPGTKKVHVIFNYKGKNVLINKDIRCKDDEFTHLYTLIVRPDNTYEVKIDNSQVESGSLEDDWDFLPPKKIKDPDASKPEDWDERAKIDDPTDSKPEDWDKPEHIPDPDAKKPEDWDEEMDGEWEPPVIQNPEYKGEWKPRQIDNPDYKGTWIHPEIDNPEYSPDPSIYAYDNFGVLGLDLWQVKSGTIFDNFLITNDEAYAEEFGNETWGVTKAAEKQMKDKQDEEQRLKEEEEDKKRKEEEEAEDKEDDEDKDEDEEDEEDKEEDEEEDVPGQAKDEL
As to the kind of experiment: flow cytometry on ELF-153 MPL CALRwt cells, 1 h at 37 C, AF647 secondary antibody, Geometric Mean. The protocol: as §1

T1 sequence (P07766 23-207): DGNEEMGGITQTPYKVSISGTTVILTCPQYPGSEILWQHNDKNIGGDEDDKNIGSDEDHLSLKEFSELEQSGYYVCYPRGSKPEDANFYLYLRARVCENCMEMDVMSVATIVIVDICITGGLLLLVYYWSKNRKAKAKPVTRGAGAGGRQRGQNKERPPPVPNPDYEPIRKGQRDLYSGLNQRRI

Take M13KO7: the phage ELISA signal (Coating: CALR) in assay [1] was found to be 0.225.

B1: CALRB1508 CALRmut x CD3 bispecific antibody (bispecific antibody, human IgG1, kappa, L234A L235A)
scFv: DIQMTQSPSSLSASVGDRVTITCRARQSIGTAIHWYQQKPGCAPKLLIKYASESISGVPSRFSGSGSGTDFTLTISSLQPEDFATYYCQQSGSWPYTFGQGTKLEIKGGGSGGSGGCPPCGGSGGEVQLVESGGGLVKPGGSLRLSCAASGFTFSRYNMNWVRQAPGKGLEWVSSISTSSNYIYYADSVKGRFTFSRDNAKNSLDLQMSGLRAEDTAIYYCTRGWGPFDYWGCGTLVTVSSEPKSSDKTHTCPPCPAPEAAGGPSVFLFPPKPKDTLMISRTPEVTCVVVSVSHEDPEVKFNWYVDGVEVHNAKTKPREEQYNSTYRVVSVLTVLHQDWLNGKEYKCKVSNKALPAPIEKTISKAKGQPREPQVYTLPPSREEMTKNQVSLWCLVKGFYPSDIAVEWESNGQPENNYKTTPPVLDSDGSFFLYSKLTVDKSRWQQGNVFSCSVMHEALHNHYTQKSLSLSPGK
heavy: QVQLVQSGAEVKKPGASVKVSCKASGFSLSSYAMSWVRQAPGQGLEWMGVIDSGGTTYYAQKFQGRVTMTRDTSTSTVYMELSSLRSEDTAVYYCARESYAGYDYYGHPIPYGMEPWGQGTLVTVSSASTKGPSVFPLAPSSKSTSGGTAALGCLVKDYFPEPVTVSWNSGALTSGVHTFPAVLQSSGLYSLSSVVTVPSSSLGTQTYICNVNHKPSNTKVDKKVEPKSCDKTHTCPPCPAPEAAGGPSVFLFPPKPKDTLMISRTPEVTCVVVSVSHEDPEVKFNWYVDGVEVHNAKTKPREEQYNSTYRVVSVLTVLHQDWLNGKEYKCKVSNKALPAPIEKTISKAKGQPREPQVYTLPPSREEMTKNQVSLSCAVKGFYPSDIAVEWESNGQPENNYKTTPPVLDSDGSFFLVSKLTVDKSRWQQGNVFSCSVMHEALHNRFTQKSLSLSPGK
light: DIQMTQSPSTLSASVGDRVTITCQASQSLYNNKNLAWYQQKPGKAPKLLIYYASALASGVPSRFSGSGSGTEFTLTISSLQPDDFATYYCQGEFNCNSADCNSFGGGTKVEIKRTVAAPSVFIFPPSDEQLKSGTASVVCLLNNFYPREAKVQWKVDNALQSGNSQESVTEQDSKDSTYSLSSTLTLSKADYEKHKVYACEVTHQGLSSPVTKSFNRGEC
notes: Chain A: CD3 spFv-Fc; Chain B: CALRB1114 Fab arm
As for B1, the entries for the “EC50 (read off the curve)” value in assay [2], in assay [3] and in assay [4] were approximately 3 nM, approximately 3 nM and approximately 4 nM, respectively. In addition, in assay [5], the binding result is listed as “no binding (tested: 100 nM)”.

B2: C3CRB75 CALRmut x CD3 bispecific antibody (bispecific antibody, human IgG1, kappa, L234A L235A)
heavy 1: EVQLLESGGGLVQPGGSLRLSCAVSGIDLSNNAISWVRQAPGKGLEYVGVIGNTGDTYYADSAKGRFTISRDSSKTTLYLQMNSLRAEDTAVYFCVRGPPSYSSSVKNIWGQGTLVTVSSASTKGPSVFPLAPSSKSTSGGTAALGCLVKDYFPEPVTVSWNSGALTSGVHTFPAVLQSSGLYSLSSVVTVPSSSLGTQTYICNVNHKPSNTKVDKKVEPKSCDGGGGSGGGGSDIQMTQSPSSLSASVGDRVTITCRARQSIGTAIHWYQQKPGCAPKLLIKYASESISGVPSRFSGSGSGTDFTLTISSLQPEDFATYYCQQSGSWPYTFGQGTKLEIKGGGSGGSGGCPPCGGSGGEVQLVESGGGLVKPGGSLRLSCAASGFTFSRYNMNWVRQAPGKGLEWVSSISTSSNYIYYADSVKGRFTFSRDNAKNSLDLQMSGLRAEDTAIYYCTRGWGPFDYWGCGTLVTVSSEPKSSDKTHTCPPCPAPEAAGGPSVFLFPPKPKDTLMISRTPEVTCVVVSVSHEDPEVKFNWYVDGVEVHNAKTKPREEQYNSTYRVVSVLTVLHQDWLNGKEYKCKVSNKALPAPIEKTISKAKGQPREPQVYTLPPSREEMTKNQVSLWCLVKGFYPSDIAVEWESNGQPENNYKTTPPVLDSDGSFFLYSKLTVDKSRWQQGNVFSCSVMHEALHNHYTQKSLSLSPGK
heavy 2: EVQLLESGGGLVQPGGSLRLSCAVSGIDLSNNAISWVRQAPGKGLEYVGVIGNTGDTYYADSAKGRFTISRDSSKTTLYLQMNSLRAEDTAVYFCVRGPPSYSSSVKNIWGQGTLVTVSSASTKGPSVFPLAPSSKSTSGGTAALGCLVKDYFPEPVTVSWNSGALTSGVHTFPAVLQSSGLYSLSSVVTVPSSSLGTQTYICNVNHKPSNTKVDKKVEPKSCDKTHTCPPCPAPEAAGGPSVFLFPPKPKDTLMISRTPEVTCVVVSVSHEDPEVKFNWYVDGVEVHNAKTKPREEQYNSTYRVVSVLTVLHQDWLNGKEYKCKVSNKALPAPIEKTISKAKGQPREPQVYTLPPSREEMTKNQVSLSCAVKGFYPSDIAVEWESNGQPENNYKTTPPVLDSDGSFFLVSKLTVDKSRWQQGNVFSCSVMHEALHNRFTQKSLSLSPGK
light: DIQMTQSPSSVSASVGDRVTITCQSSQSVYNNNWLSWLQQKPGKAPKRLIYDASKLESGVPSRFSGSGSGTDFTLTISSVQPEDAATYYCAGGFTGNVYTFGGGTKVEIKRTVAAPSVFIFPPSDEQLKSGTASVVCLLNNFYPREAKVQWKVDNALQSGNSQESVTEQDSKDSTYSLSSTLTLSKADYEKHKVYACEVTHQGLSSPVTKSFNRGEC
notes: Chain A heavy: CALRB421 Fab heavy part, CD3 spFv, Fc; Chain B heavy: CALRB421; one light chain on each
For B2, the binding result was “binds” in assay [2] and “no binding (tested: 100 nM)” in assay [5]. Besides, the entries for the “EC50 (read off the curve)” value in assay [3] and in assay [4] were approximately 0.5 nM and approximately 2 nM, respectively.
